Assay [1] has as its target T1, SARS-CoV-2 spike receptor-binding domain (RBD) (SARS-CoV-2, Wuhan-Hu-1, UniProt P0DTC2).
In assay [2] the target is T1, SARS-CoV-2 spike receptor-binding …. As to the kind of experiment: SPR; array SPR (Carterra LSA), HC200M chip; IgG captured on immobilised anti-human Fc; antigen as analyte in a 7-point series, RBD 300 nM to 411 pM or trimer 100 nM to 137 pM, in 1x HBSTE with 0.5 mg/mL BSA; association 5 min, dissociation 11 min; one-site model; constants for the trimer are called avidities. To be noted: both partners purified. (In general: In SPR one partner is held on a chip, and binding of the other changes the refractive index at the surface.)

Changes are numbered by the printed parent chain. Like-named read-outs stand apart in the source and are kept apart here.

B1: E5 (antibody, V domains shown)
VH: EVQLVQSGAEVKKPGASVKVSCKVSGYSFTDHSIHWVRQAPGKGLEWMGGINPYTGDTIYAQKFQGRVTMTEDTSTDTAYMELSSLKSEDTAVYYCAKDGWGSLLNGIAVAGLDYWGQGTLVTVSS
VL: DIQMTQSPSSVSASVGDRVTITCRASQDISTYLAWYQQKPGKAPKLLIYASSNLASGVPSRFSGSGSGTDFTLTISSLQPEDFANYYCHQYATYPWGFGGGTKVEIK
On to B1, for which the binding result in assay [1] is on record as “binds”.

B2: selected anti-SARS-CoV-2 spike antibody A11 (antibody, V domains shown)
VH: QVQLVQSGAEVKKPGASVKVSCKVSGYSFTDHSIHWVRQAPGKGLEWMGGINPYTGDTIYAQKFQGRVTMTEDTSTDTAYMELSSLKSEDTAVYYCARDGYSYGYLSGMDVWGQGTTVTVSS
VL: B1 VL with S30G, T31N, Y32H, G97T
For the molecule B2, the binding result in assay [2] was “binds”.

B3: selected anti-SARS-CoV-2 spike antibody D3 (antibody, V domains shown)
VH: EVQLVQSGAEVKKPGASVKVSCKVSGYSFADYAIHWVRQAPGKGLEWMGGINPNIGDTIYAQKFQGRVTMTEDTSTDTAYMELSSLKSEDTAVYYCARDGYDFWSGSYGMDVWGQGTTVTVSS
VL: B1 VL with S30G, T31N, Y32H, H89Q, A92S, T93E, G97T
On to B3, for which, in assay [2], the binding result was “binds”.

B4: selected anti-SARS-CoV-2 spike antibody C4 (antibody, V domains shown)
VH: EVQLVQSGAEVKKPGASVKVSCKVSGYSFTDHSIHWVRQAPGKGLEWMGGINPYTGDTIYAQKFQGRVTMTEDTSTDTAYMELSSLKSEDTAVYYCARDGYSGYDYGSVGRDYYYYGMDVWGQGTTVTVSS
VL: B1 VL with S30G, T31N, Y32H, G97T
Take B4: the binding result in assay [2] is recorded as “binds”.

B5: selected anti-SARS-CoV-2 spike antibody G6 (antibody, V domains shown)
VH: EVQLVESGAEVKKPGASVKVSCKVSGYTFSNHAIHWVRQAPGKGLEWMGGINPNIGDTIYAQKFQGRVTMTEDTSTDTAYMELSSLKSEDTAVYYCARDGYPGDYSGLDVWGQGTLVTVSS
VL: B1 VL with D28P, T31S, A50E, S51A, N53K, A55Q, G97T
As to B5, the binding result in assay [2] is given as “binds”.

B6: selected anti-SARS-CoV-2 spike antibody C7 (antibody, V domains shown)
VH: QVQLVQSGAEVKKPGASVKVSCKVSGYSFTNYAIHWVRQAPGKGLEWMGGITPYNADTIYAQKFQGRVTMTEDTSTDTAYMELSSLKSEDTAVYYCARDGGNWAAPYSMDVWGNGTLVTVSS
VL: B1 VL with Q27H, D28G, T31S, A50D, S51A, S52T, N53I, L54R, S56T, G97T
Take B6: the binding result in assay [2] was “binds”.

B7: selected anti-SARS-CoV-2 spike antibody F1 (antibody, V domains shown)
VH: EVQLVQSGAEVKKPGASVKVSCKVSGYPFTSYAIHWVRQAPGKGLEWMGGITPYNADTIYAQKFQGRVTMTEDTSTDTAYMELSSLKSEDTAVYYCARDGYSSGYYGMDVWGQGTTVTVSS
VL: B1 VL with S30G, T31N, Y32H, G97T
As for B7, the binding result in assay [2] is “binds”.

B8: selected anti-SARS-CoV-2 spike antibody G5 (antibody, V domains shown)
VH: B2 VH
VL: B1 VL with T31H, Y32H, A50D, S51A, N53L, L54R, S56T, V58I, T93A, G97T
For B8, the binding result in assay [2] is listed as “binds”.

B9: selected anti-SARS-CoV-2 spike antibody A12 (antibody, V domains shown)
VH: B1 VH with K98R
VL: B1 VL with S30G, T31N, Y32H, G97T
Regarding B9, the binding result in assay [2] is “binds”.

B10: selected anti-SARS-CoV-2 spike antibody G4 (antibody, V domains shown)
VH: B3 VH with E1Q, S28T, F29L, A30S, Y32H, N54Y, I55T
VL: B1 VL with S30G, T31N, Y32H, G97T
Regarding B10, the binding result in assay [2] is reported as “binds”.

B11: selected anti-SARS-CoV-2 spike antibody H2 (antibody, V domains shown)
VH: B7 VH with S31R, Y32S, A33T, T52N, P53A, Y54G, N55T, A56G, T116L
VL: B1 VL with D28G, T31D, Y32F, A50G, S51A, L54R, S56T, G97T
Regarding B11, the binding result in assay [2] was “binds”.

B12: selected anti-SARS-CoV-2 spike antibody F5 (antibody, V domains shown)
VH: B5 VH with E6Q, P102S, D104Y, Y105V, S106E, L108M, L116T
VL: B1 VL with D28N, S30H, T31S, A50D, S51T, N53K, A55Q, T93A, G97T
Consider B12, for which the binding result in assay [2] is listed as “binds”.

B13: G8 (antibody, V domains shown)
VH: B1 VH with Q6E, K98R
VL: B1 VL with D28S, S30G, T31S, Y32F, G97T
B13: the binding result in assay [1] is reported as “binds”.

B14: selected anti-SARS-CoV-2 spike antibody B11 (antibody, V domains shown)
VH: EVQLVQSGAEVKKPGASVKVSCKVSGYSFTDHSIHWVRQAPGKGLEWMGGINPYTGDTIYAQKFQGRVTMTEDTSTDTAYMELSSLKSEDTAVYYCARDAYPYYYGMDVWGQGTTVTVSS
VL: B1 VL with S30G, T31N, Y32H, G97T
In the case of B14, the binding result in assay [2] is “binds”.

B15: selected anti-SARS-CoV-2 spike antibody D2 (antibody, V domains shown)
VH: QVQLVQSGAEVKKPGASVKVSCKVSGYSFTDHSIHWVRQAPGKGLEWMGGINPYTGDTIYAQKFQGRVTMTEDTSTDTAYMELSSLKSEDTAVYYCARDARLLDYWGQGAQVTVSS
VL: B1 VL with Q27R, D28S, S30G, T31N, Y32H, G97T
Take B15: in assay [2], the binding result was “binds”.

B16: selected anti-SARS-CoV-2 spike antibody C2 (antibody, V domains shown)
VH: QVQLVQSGAEVKKPGASVKVSCKASGYTSPATIHWVRQAPGKGLEWMGGISPYKGDTIYAQKFQGRVTMTEDTSTDTAYMELSSLKSEDTAVYYCARDAYSSSYYYGMDVWGQGTTVTVSS
VL: B1 VL with Q27E, T31K, A50G, S51A, A55H, S56T, G97T
B16: the binding result in assay [2] is “binds”.

B17: selected anti-SARS-CoV-2 spike antibody A10 (antibody, V domains shown)
VH: B3 VH with E1Q, A30T, Y32H, A33S, D102G, F103D, W104Y, S105R, S107L
VL: B1 VL with Q27R, S30N, T31K, A50G, S51E, N53S, L54R, S56A, G97T
B17: the binding result in assay [2] is “binds”.

B18: selected anti-SARS-CoV-2 spike antibody G12 (antibody, V domains shown)
VH: B3 VH with S28T, A30S, D31N, Y32H, D102G, F103D, W104Y, S105R, S107L
VL: B1 VL with S30G, T31N, Y32H, G97T
B18: the binding result in assay [2] is “binds”.

B19: selected anti-SARS-CoV-2 spike antibody B7 (antibody, V domains shown)
VH: B1 VH with E1Q, Y54N, T55I
VL: B1 VL with S30G, T31N, Y32H, G97T
As to B19, the binding result in assay [2] was “binds”.

B20: selected anti-SARS-CoV-2 spike antibody B3 (antibody, V domains shown)
VH: EVQLVQSGAEVKKPGASVKVSCKVSGYTSPATIHWVRQAPGKGLEWMGGISPYKGDTIYAQKFQGRVTMTEDTSTDTAYMELSSLKSEDTAVYYCAKDSYYYDSSGSGLGGGFDYWGQGTLVTVSS
VL: B1 VL with S30G, T31N, Y32H, G97T
In the case of B20, the binding result in assay [2] is listed as “binds”.

B21: selected anti-SARS-CoV-2 spike antibody F7 (antibody, V domains shown)
VH: QVQLVQSGAEVKKPGASVKVSCKVSGYSFSTYTIHWVRQAPGKGLEWMGGINPYTGDTIYAQKFQGRVTMTEDTSTDTAYMELSSLKSEDTAVYYCARDGYSGYESSYYYYGMDVWGQGTTVTVSS
VL: B1 VL with S30G, T31N, Y32H, G97T
On to B21, for which, in assay [2], the binding result was “binds”.

B22: selected anti-SARS-CoV-2 spike antibody C1 (antibody, V domains shown)
VH: EVQLVQSGAEVKKPGASVKVSCKVSGYSFTDHSIHWVRQAPGKGLEWMGGISTQRGDTIYAQKFQGRVTMTEDTSTDTAYMELSSLKSEDTAVYYCARDGYYGSGTYYYYGMDVWGQGTTVTVSS
VL: DIQMTQSPSSVSASVGDRVTITCRASQSIGSFLAWYQQKPGKAPKLLIYGESNRATGVPSRFSGSGSGTDFTLTISSLQPEDFANYYCQQYNRYPWAFGGGTKVEIK
For the molecule B22, in assay [2], the binding result is on record as “binds”.

B23: selected anti-SARS-CoV-2 spike antibody B2 (antibody, V domains shown)
VH: B22 VH with E1Q, S52N, T53P, Q54Y, R55T, G100A, Y102S, G105Y, T106P
VL: DIQMTQSPSSVSASVGDRVTITCRASEGISNYLAWYQQKPGKAPKLLIYGTSDRASGIPSRFSGSGSGTDFTLTISSLQPEDFANYYCQQYSAFPWTFGGGTKVEIK
On to B23, for which the binding result in assay [2] is listed as “binds”.

B24: selected anti-SARS-CoV-2 spike antibody G2 (antibody, V domains shown)
VH: QVQLVQSGAEVKKPGASVKVSCKVSGYTFTANAIHWVRQAPGKGLEWMGGIGPGQGDTIYAQKFQGRVTMTEDTSTDTAYMELSSLKSEDTAVYYCARDGHCSGGSCPSGMDVWGQGTTVTVSS
VL: B23 VL with E27Q, G28D, S30G, Y32H, T51A, D53I, A55E, I58V
On to B24, for which the binding result in assay [2] is on record as “binds”.

These data come from PMC8786865 (Nature Communications, 2022).
